Assay results: patent US20180155451A1 (published 2018)

T1: FcγRIIb (human, UniProt P31994 43-217)
T1 construct: extracellular domain; also called FcgRIIb; 2b; not shown: His tag at the C terminus
T1 sequence (looked up): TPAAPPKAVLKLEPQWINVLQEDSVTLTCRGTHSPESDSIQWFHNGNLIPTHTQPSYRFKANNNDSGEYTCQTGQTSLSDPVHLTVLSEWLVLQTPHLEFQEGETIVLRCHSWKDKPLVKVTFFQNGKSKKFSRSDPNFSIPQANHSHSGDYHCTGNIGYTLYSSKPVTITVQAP

B1: GpH7-A5/GpH7-B3 variant L328_02A/GpL16-k0 (antibody, human IgG1, kappa)
heavy 1: not shown
heavy 2: not shown
light: DIVMTQSPLSLPVTPGEPASISCQASESLVHSNRNTYLHWYLQKPGQSPQLLIYKVSNRFSGVPDRFSGSGSGTDFTLKISRVEAEDVGVYYCSQNTHVPPTFGQGTKVEIERTVAAPSVFIFPPSDEQLKSGTASVVCLLNNFYPREAKVQWKVDNALQSGNSQESVTEQDSKDSTYSLSSTLTLSKADYEKHKVYACEVTHQGLSSPVTKSFNRGEC
notes: heterodimerized IgG1; alteration in the GpH7-B3 H chain only; also called He Ab
B2: GpH7-A5/GpH7-B3 variant L328_13S/GpL16-k0 (antibody, human IgG1, kappa)
heavy 1: not shown
heavy 2: not shown
light: B1 light
notes: as for B1
B3: GpH7-A5/GpH7-B3 variant L328_04F/GpL16-k0 (antibody, human IgG1, kappa)
heavy 1: not shown
heavy 2: not shown
light: B1 light
notes: as for B1
B4: GpH7-A5/GpH7-B3 variant L328_07I/GpL16-k0 (antibody, human IgG1, kappa)
heavy 1: not shown
heavy 2: not shown
light: B1 light
notes: as for B1
B5: GpH7-A5/GpH7-B3 variant L328_06M/GpL16-k0 (antibody, human IgG1, kappa)
heavy 1: not shown
heavy 2: not shown
light: B1 light
notes: as for B1
B6: GpH7-A5/GpH7-B3 variant I332_10E/GpL16-k0 (antibody, human IgG1, kappa)
heavy 1: not shown
heavy 2: not shown
light: B1 light
notes: as for B1
B7: GpH7-A5/GpH7-B3 variant L328_20W/GpL16-k0 (antibody, human IgG1, kappa)
heavy 1: not shown
heavy 2: not shown
light: B1 light
notes: as for B1
B8: GpH7-A5/GpH7-B3 variant N325_04F/GpL16-k0 (antibody, human IgG1, kappa)
heavy 1: not shown
heavy 2: not shown
light: B1 light
notes: as for B1
B9: GpH7-A5/GpH7-B3 variant L328_14T/GpL16-k0 (antibody, human IgG1, kappa)
heavy 1: not shown
heavy 2: not shown
light: B1 light
notes: as for B1
B10: GpH7-A5/GpH7-B3 variant L328_15Y/GpL16-k0 (antibody, human IgG1, kappa)
heavy 1: not shown
heavy 2: not shown
light: B1 light
notes: as for B1
B11: GpH7-A5/GpH7-B3 variant N325_08L/GpL16-k0 (antibody, human IgG1, kappa)
heavy 1: not shown
heavy 2: not shown
light: B1 light
notes: as for B1
B12: GpH7-A5/GpH7-B3 variant N325_07I/GpL16-k0 (antibody, human IgG1, kappa)
heavy 1: not shown
heavy 2: not shown
light: B1 light
notes: as for B1
B13: GpH7-A5/GpH7-B3 variant P331_16H/GpL16-k0 (antibody, human IgG1, kappa)
heavy 1: not shown
heavy 2: not shown
light: B1 light
notes: as for B1
B14: GpH7-A5/GpH7-B3 variant L328_09D/GpL16-k0 (antibody, human IgG1, kappa)
heavy 1: not shown
heavy 2: not shown
light: B1 light
notes: as for B1
B15: GpH7-A5/GpH7-B3 variant L328_10E/GpL16-k0 (antibody, human IgG1, kappa)
heavy 1: not shown
heavy 2: not shown
light: B1 light
notes: as for B1
B16: GpH7-A5/GpH7-B3 variant N325_06M/GpL16-k0 (antibody, human IgG1, kappa)
heavy 1: not shown
heavy 2: not shown
light: B1 light
notes: as for B1

The binders below were run against T2, FcγRIa (human, UniProt P12314 16-292) (assay: SPR (Biacore), antibody captured, FcγR as analyte; binding as % of GpH7-A5/GpH7-B3/GpL16-k0).
T2 construct: extracellular domain; also called FcgRI; 1a; not shown: His tag at the C terminus
T2 sequence (P12314 16-292): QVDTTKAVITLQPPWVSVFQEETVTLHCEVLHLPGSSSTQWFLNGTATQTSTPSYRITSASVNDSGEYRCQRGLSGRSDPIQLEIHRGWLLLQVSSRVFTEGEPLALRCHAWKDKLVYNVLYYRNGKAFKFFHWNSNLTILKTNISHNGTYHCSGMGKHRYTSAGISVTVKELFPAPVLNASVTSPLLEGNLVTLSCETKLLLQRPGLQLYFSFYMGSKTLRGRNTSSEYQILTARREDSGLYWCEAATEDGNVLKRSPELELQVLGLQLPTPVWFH
In the case of B1, the He/Con_1a is reported as 98.5 % of control.
B2 was tested, and the He/Con_1a was 99 % of control.
B3 was tested, and the He/Con_1a was 97.9 % of control.
In the case of B4, the He/Con_1a is reported as 99.4 % of control.
In the case of B5, the He/Con_1a is reported as 98.7 % of control.

The binders below were run against T1, FcγRIIb in the same assay as above.
In the case of B1, the He/Con_2b is reported as 144 % of control.
For B2, the He/Con_2b was 149 % of control.
B3 was tested, and the He/Con_2b was 219 % of control.
With B4 the He/Con_2b was 160 % of control.
In the case of B5, the He/Con_2b is reported as 142 % of control.

Biological target: T2, FcγRIa
Assay: as above
Remark: another data set of the same source
With B6 the He/Con_1a was 96.3 % of control.
With B7 the He/Con_1a was 103 % of control.
With B8 the He/Con_1a was 93.2 % of control.
With B1 the He/Con_1a was 98.5 % of control.
For B9, the He/Con_1a was 100 % of control.
With B2 the He/Con_1a was 99 % of control.
In the case of B3, the He/Con_1a is reported as 97.9 % of control.
With B4 the He/Con_1a was 99.4 % of control.
With B10 the He/Con_1a was 102 % of control.
B11 was tested, and the He/Con_1a was 97.5 % of control.
With B12 the He/Con_1a was 94.8 % of control.
With B13 the He/Con_1a was 92.4 % of control.
In the case of B14, the He/Con_1a is reported as 102 % of control.
For B5, the He/Con_1a was 98.7 % of control.
For B15, the He/Con_1a was 101 % of control.
B16 was tested, and the He/Con_1a was 97.6 % of control.

Biological target: T1, FcγRIIb
Assay: as above
Remark: another data set of the same source
In the case of B6, the He/Con_2b is reported as 142 % of control.
For B7, the He/Con_2b was 235 % of control.
B8 was tested, and the He/Con_2b was 143 % of control.
For B1, the He/Con_2b was 144 % of control.
In the case of B9, the He/Con_2b is reported as 141 % of control.
B2 was tested, and the He/Con_2b was 149 % of control.
In the case of B3, the He/Con_2b is reported as 219 % of control.
In the case of B4, the He/Con_2b is reported as 160 % of control.
B10 was tested, and the He/Con_2b was 193 % of control.
In the case of B11, the He/Con_2b is reported as 197 % of control.
B12 was tested, and the He/Con_2b was 171 % of control.
In the case of B13, the He/Con_2b is reported as 116 % of control.
B14 was tested, and the He/Con_2b was 199 % of control.
For B5, the He/Con_2b was 142 % of control.
B15 was tested, and the He/Con_2b was 172 % of control.
For B16, the He/Con_2b was 217 % of control.

What follows are binders tested against T2, FcγRIa (assay: SPR (Biacore); He/Con_1a (FcγRIa) divided by He/Con_2b (FcγRIIb)).
In the case of B6, the “Ia/IIb He_1a/2b” value is reported as 0.68 ratio.
In the case of B7, the “Ia/IIb He_1a/2b” value is reported as 0.44 ratio.
In the case of B8, the “Ia/IIb He_1a/2b” value is reported as 0.65 ratio.
In the case of B1, the “Ia/IIb He_1a/2b” value is reported as 0.68 ratio.
With B9 the “Ia/IIb He_1a/2b” value was 0.71 ratio.
In the case of B2, the “Ia/IIb He_1a/2b” value is reported as 0.66 ratio.
B3 was tested, and the “Ia/IIb He_1a/2b” value was 0.45 ratio.
For B4, the “Ia/IIb He_1a/2b” value was 0.62 ratio.
B10 was tested, and the “Ia/IIb He_1a/2b” value was 0.53 ratio.
With B11 the “Ia/IIb He_1a/2b” value was 0.5 ratio.
B12 was tested, and the “Ia/IIb He_1a/2b” value was 0.55 ratio.
B13 was tested, and the “Ia/IIb He_1a/2b” value was 0.8 ratio.
B14 was tested, and the “Ia/IIb He_1a/2b” value was 0.51 ratio.
B5 was tested, and the “Ia/IIb He_1a/2b” value was 0.7 ratio.
With B15 the “Ia/IIb He_1a/2b” value was 0.59 ratio.
B16 was tested, and the “Ia/IIb He_1a/2b” value was 0.45 ratio.
